Data from article PMC6170785, “Synthetic Fragments of Receptor for Advanced Glycation End Products Bind Beta-Amyloid 1–40 and Protect Primary Brain Cells From Beta-Amyloid Toxicity” (Frontiers in Neuroscience, 2018).

What was measured:
Aβ 1–40 = molecular target: T1, Aβ 1–40 (Homo sapiens, UniProt P05067); experiment: Fluorescent titration of RAGE fragments by Aβ 1–40; format: binding; conditions: tryptophan fluorescence titration with Aβ 1–40; 25 mM Tris-HCl, 100 mM NaCl, 5 mM EDTA, pH 7.5; peptide 0.5 μM (P1) or 2 μM (P2–P6); excitation 285 nm, emission 355 nm; mean ± SEM of three independent measurements
T1 construct: Lyophilized synthetic Aβ 1–40 was dissolved in mili-Q water; host or cells: chemical synthesis (synthetic peptide)
Method: The fluorescence titrations of synthetic peptides were performed using Fluoromax 3 fluorescence spectrophotometer (Horiba Jobin Yvon, Germany). Titrations were conducted in a quartz cuvette with 2 ml of titration buffer (25 mM Tris-HCl, 100 mM NaCl, 5 mM EDTA, pH 7.5). The concentration of peptide (60–76) which has two tryptophan residues was 0.5 μM. Whereas peptides (60–70), (60–62), (60–65), (62–73), and (65–76) have only one Trp residue, their concentration was 2 μM to enhance the signal. Lyophilized synthetic Aβ 1–40 was dissolved in mili-Q water at a concentration of 1 mM. […]
The fluorescence spectrum was measured after each addition of beta-amyloid. […] Emission was detected in the range of […]. The maximum of fluorescence intensity was found at 355 nm. […]
where [S] – concentration of Aβ 1–40 in cuvette; ΔF is the difference of intensity between experiment in absence of Aβ 1–40 and experiment with beta-amyloid at the certain concentration and ΔFmax is the maximal fluorescence change ([Huang et al., 2016]). […]
The dissociation constant Kd was found by multiplication of the calculated slope factor and ΔFmax. For each peptide the dissociation constant was measured three times independently. Dissociation constants were expressed as mean ± SEM. P-values were measured by Mann-Whitney test to estimate the differences between each of obtained dissociation constants.

[1] = tested on: primary cultures of neurons and astrocytes derived from hippocampal and cortical areas of rats' brains; experiment: Caspase 3 activity assay (NucView 488) after Aβ 1–42 treatment; format: cell-based, rat; conditions: pre-incubation 3 h with 10 μM peptide, then 1 h with 5 μM Aβ 1–42, NucView 488, confocal, mean (SEM) of N = 6–28 fields
Method: Mixed cultures of hippocampal and cortical neurons and glial cells were prepared as described previously ([Vaarmann et al., 2010]) with modifications, from Sprague-Dawley rat pups 2–4 days post-partum (UCL breeding colony). […] Hippocampi and cortex were removed into ice-cold PBS (Ca^2+, Mg^2+-free, Invitrogen, Paisley, United Kingdom). The tissue was minced and trypsinised (0.25% for 15 min at 37°C), triturated and plated on Poly-D-lysine-coated coverslips and cultured in Neurobasal A medium (Invitrogen, Paisley, United Kingdom) supplemented with B-27 (Invitrogen, Paisley, United Kingdom) and 2 mM L-glutamine. […]
For the measurement of caspase 3 activation, cells were loaded for 15 min at room temperature with 10 μM NucView 488 caspase 3 substrate (Biotium, United States) in HBSS. […] The 488 nm argon laser was used to excite NucView 488 fluorescence, which was measured using a bandpass filter from 510 and 560 nm. […] The number of cells with activated caspase 3 and the number of all visible cells was quantified manually in each field and the percentage of dead cells was calculated by dividing the number of caspase 3-positive cells by the number of all cells counted in one field. The differences between the groups were evaluated using the two-sample t-test. All data were expressed as mean ± SEM. […]

[2] = molecular target: Beta-amyloid 1-40 Abeta 1-40 (Homo sapiens, UniProt P05067); experiment: tryptophan fluorescence titration
Sequence of Beta-amyloid 1-40 Abeta 1-40 (P05067 1-40): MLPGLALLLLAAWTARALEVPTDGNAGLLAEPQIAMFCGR

T1 sequence (P05067 672-711 limits assumed): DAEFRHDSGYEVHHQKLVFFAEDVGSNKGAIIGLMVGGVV

Row | Molecule | Kd [2] [nM] | also measured
1 | SPQGGGPWDSVA [Peptide P5, synthetic fragment (65–76) of human RAGE] |  | Kd (Aβ 1–40): No binding; Percentage of cells with activated caspase 3, Mean [1]: 14.25%; Percentage of cells with activated caspase 3, Mean ([1]; SEM): 14.25 ± 3.22%
2 | KVLSPQGGGPWD [RAGE fragment P6 (62-73)] | 1530 | 
3 | AWK [RAGE fragment P3 (60-62)] | 840 | 
4 | AWKVLSPQGGG [RAGE fragment P2 (60-70)] | 4060 | 
5 | AWKVLSPQGGGPWDSVA [RAGE fragment P1 (60-76)] | 1390 | 
6 | AWKVLS [RAGE fragment P4 (60-65)] | 2810 | 
